Experimental data reported in the supplement of paper PMC11246515.
± gives the standard deviation of the averaged measurements.

Assay: total protein half-life in vivo (active degradation + dilution); higher = more stable protein
[1] = E. coli NCM3722 delta-clpP, growth: N-lim chemostat, doubling time 6 h
[2] = E. coli NCM3722 delta-lon, growth: N-lim chemostat, doubling time 6 h
[3] = E. coli NCM3722 delta-smpB, growth: N-lim chemostat, doubling time 6 h
[4] = wild type E. coli NCM3722, growth: C-lim chemostat, doubling time 12 h
[5] = wild type E. coli NCM3722, growth: N-lim chemostat, doubling time 6 h
[6] = wild type E. coli NCM3722, growth: N-lim chemostat, doubling time 12 h
[7] = wild type E. coli NCM3722, growth: P-lim chemostat, doubling time 6 h
[8] = wild type E. coli NCM3722, growth: P-lim chemostat, doubling time 12 h
[9] = wild type E. coli NCM3722, growth: C-lim chemostat, doubling time 6 h
[10] = E. coli NCM3722 delta-clpP delta-lon delta-hslV, growth: N-lim chemostat, doubling time 6 h
[11] = E. coli NCM3722 delta-hslV, growth: N-lim chemostat, doubling time 6 h

Row | Sequence | total protein half-life in vivo [1] [h] | total protein half-life in vivo [2] [h] | total protein half-life in vivo [3] [h] | total protein half-life in vivo [4] [h] | total protein half-life in vivo [5] [h] | total protein half-life in vivo [6] [h] | total protein half-life in vivo [7] [h] | total protein half-life in vivo [8] [h] | total protein half-life in vivo [9] [h] | total protein half-life in vivo [10] [h] | total protein half-life in vivo [11] [h] | total protein half-life in vivo (wild type E. coli NCM3722, growth: C-lim chemostat, doubling time 3 h) [h]
1 | MHKAILNSDLIATKAGDVTVYNYDGETREYISTSNEYLAVGVGIPACSCLDAPGTHKAGYAICRSADFNSWEYVPDHRGETVYSTKTGESKEIKAPGDYPENTTTIAPLSPYDKWDGEKWVTDTEAQHSAAVDAAEAQRQSLIDAAMASISLIQLKLQAGRKLTQAETTRLNAVLDYIDAVTATDTSTAPDVIWPELPEA | 2.37 | 1.83 | 2.04 ± 0.18 | 3.87 | 3.06 | 3.07 ± 0.66 | – | – | – | – | – | –
2 | MHLITQKALKDAAEKYPQHKTELVALGNTIAKGYFKKPESLKAVFPSLDNFKYLDKHYVFNVGGNELRVVAMVFFESQKCYIREVMTHKEYDFFTAVHRTKGKK | – | – | – | – | – | – | 6.72 | 10.1 ± 0.64 | – | – | – | –
3 | MHLSTHPTSYPTRYQEIAAKLEQELRQHYRCGDYLPAEQQLAARFEVNRHTLRRAIDQLVEKGWVQRRQGVGVLVLMRPFDYPLNAQARFSQNLLDQGSHPTSEKLLSVLRPASGHVADALGITEGENVIHLRTLRRVNGVALCLIDHYFADLTLWPTLQRFDSGSLHDFLREQTGIALRRSQTRISARRAQAKECQRLEIPNMSPLLCVRTLNHRDGESSPAEYSVSLTRADMIEFTMEH | – | – | – | – | – | – | 0.458 ± 0.023 | 1.54 ± 0.86 | 6.73 | – | – | –
4 | MHNDKDLSTWQTFRRLWPTIAPFKAGLIVAGVALILNAASDTFMLSLLKPLLDDGFGKTDRSVLVWMPLVVIGLMILRGITSYVSSYCISWVSGKVVMTMRRRLFGHMMGMPVSFFDKQSTGTLLSRITYDSEQVASSSSGALITVVREGASIIGLFIMMFYYSWQLSIILIVLAPIVSIAIRVVSKRFRNISKNMQNTMGQVTTSAEQMLKGHKEVLIFGGQEVETKRFDKVSNRMRLQGMKMVSASSISDPIIQLIASLALAFVLYAASFPSVMDSLTAGTITVVFSSMIALMRPLKSLTNVNAQFQRGMAACQTLFTILDSEQEKDEGKRVIERATGDVEFRNVTFTYPGRDVPALRNINLKIPAGKTVALVGRSGSGKSTIASLITRFYDIDEGEILMDGHDLREYTLASLRNQVALVSQNVHLFNDTVANNIAYARTEQYSREQIEEAARMAYAMDFINKMDNGLDTVIGENGVLLSGGQRQRIAIARALLRDSPILILDEATSALDTESERAIQAALDELQKNRTSLVIAHRLSTIEKADEIVVVEDGVIVERGTHNDLLEHRGVYAQLHKMQFGQ | 5.99 ± 0.27 | 6.51 ± 0.63 | 6.04 ± 0.25 | 11.4 ± 3 | 6.15 ± 0.19 | – | 5.9 ± 0.39 | 11.3 ± 0.23 | 5.63 ± 0.13 | 5.89 ± 0.51 | 6.35 ± 0.47 | 3.38 ± 0.053
5 | MHPRFQTAFAQLADNLQSALEPILADKYFPALLTGEQVSSLKSATGLDEDALAFALLPLAAACARTPLSNFNVGAIARGVSGTWYFGANMEFIGATMQQTVHAEQSAISHAWLSGEKALAAITVNYTPCGHCRQFMNELNSGLDLRIHLPGREAHALRDYLPDAFGPKDLEIKTLLMDEQDHGYALTGDALSQAAIAAANRSHMPYSKSPSGVALECKDGRIFSGSYAENAAFNPTLPPLQGALILLNLKGYDYPDIQRAVLAEKADAPLIQWDATSATLKALGCHSIDRVLLA [P0ABF6] | 5.6 ± 0.071 | 6.28 ± 0.78 | 4.89 ± 0.18 | 10.7 ± 0.78 | 5.04 ± 0.077 | 8.624 ± 0.078 | 5.88 ± 0.059 | 11.7 ± 0.35 | 6.09 ± 0.4 | 5.28 ± 0.35 | 6 ± 1.1 | –
6 | MHPTGPHLGPDVLFRESNMKVTLTFNEQRRAAYRQQGLWGDASLADYWQQTARAMPDKIAVVDNHGASYTYSALDHAASCLANWMLAKGIESGDRIAFQLPGWCEFTVIYLACLKIGAVSVPLLPSWREAELVWVLNKCQAKMFFAPTLFKQTRPVDLILPLQNQLPQLQQIVGVDKLAPATSSLSLSQIIADNTSLTTAITTHGDELAAVLFTSGTEGLPKGVMLTHNNILASERAYCARLNLTWQDVFMMPAPLGHATGFLHGVTAPFLIGARSVLLDIFTPDACLALLEQQRCTCMLGATPFVYDLLNVLEKQPADLSALRFFLCGGTTIPKKVARECQQRGIKLLSVYGSTESSPHAVVNLDDPLSRFMHTDGYAAAGVEIKVVDDARKTLPPGCEGEEASRGPNVFMGYFDEPELTARALDEEGWYYSGDLCRMDEAGYIKITGRKKDIIVRGGENISSREVEDILLQHPKIHDACVVAMSDERLGERSCAYVVLKAPHHSLSLEEVVAFFSRKRVAKYKYPEHIVVIEKLPRTTSGKIQKFLLRKDIMRRLTQDVCEEIE | – | – | – | – | – | – | – | – | – | 7.05 | – | –
7 | MHQSGSVSLCRSAISVLVATALYSPIALASTVEYGETVDGVVLEKDIQLVYGTANNTKINPGGEQHIKEFGVSNNTEINGGYQYIEMNGAAEYSVLNDGYQIVQMGGAANQTTLNNGVLQVYGAANDTTIKGGRLIVEKDGGAVFVAIEKGGLLEVKEGGFAFAVDQKAGGAIKTTTRAMEVFGTNRLGQFDIKNGIANNMLLENGGSLRVEENDFAYNTTVDSGGLLEVMDGGTVTGVDKKAGGKLIVSTNALEVSGPNSKGQFSIKDGVSKNYELDDGSGLIVMEDTQAIDTILDKHATMQSLGKDTGTKVQANAVYDLGRSYQNGSITYSSKAISENMVINNGRANVWAGTMVNVSVRGNDGILEVMKPQINYAPAMLVGKVVVSEGASFRTHGAVDTSKADVSLENSVWTIIADITTTNQNTLLNLANLAMSDANVIMMDEPVTRSSVTASAENFITLTTNTLSGNGNFYMRTDMANHQSDQLNVTGQATGDFKIFVTDTGASPAAGDSLTLVTTGGGDAAFTLGNAGGVVDIGTYEYTLLDNGNHSWSLAENRAQITPSTTDVLNMAAAQPLVFDAELDTVRERLGSVKGVSYDTAMWSSAINTRNNVTTDAGAGFEQTLTGLTLGIDSRFSREESSTIRGLIFGYSHSDIGFDRGGKGNIDSYTLGAYAGWEHQNGAYVDGVVKVDRFANTIHGKMSNGATAFGDYNSNGAGAHVESGFRWVDGLWSVRPYLAFTGFTTDGQDYTLSNGMRADVGNTRILRAEAGTAVSYHMDLQNGTTLEPWLKAAVRQEYADSNQVKVNDDGKFNNDVAGTSGVYQAGIRSSFTPTLSGHLSVSYGNGAGVESPWNTQAGVVWTF | – | – | – | – | – | – | – | – | – | 5.12 | – | –
